Data taken from patent publication US20220267453A1 (SAITAMA MEDICAL UNIVERSITY, published 2022).
Substitutions are numbered along the chain they refer to.

Experiments:
[1] = target: T1, Human ALK2-His (Cat. #10227-H088) from Sino Biological Inc. (human, UniProt Q04771 21-123); experiment: ELISA of hybridoma culture supernatant on antigen immobilized at 1 µg/ml (selection of hybridomas)
T1 construct: Bought recombinant protein; also called the antigen; not shown: His tag
T1 sequence: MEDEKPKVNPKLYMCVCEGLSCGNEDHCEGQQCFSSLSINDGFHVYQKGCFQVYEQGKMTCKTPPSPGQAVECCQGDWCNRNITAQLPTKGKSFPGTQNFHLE
Procedure: One week after the cell fusion, using each culture supernatant, clones recognizing human ALK2-His used as the antigen were selected by the enzyme-linked immunosorbent assay (ELISA), and clones recognizing human ALK1-His (Sino Biological Inc.) were excluded. ELISA was performed as follows.
First, the antigen diluted to 1 μg/ml with PBS was immobilized onto a 96-well ELISA plate (NUNC, Cat. #442404) for 2 hours at room temperature or overnight at 4° C. The immobilized solution was removed, and the plate was blocked with a 0.5% skim milk solution dissolved in PBS for 30 minutes at room temperature. Next, the above-described culture supernatant of hybridomas was added, and the plate was left for 1 hour at room temperature. After the plate was washed, an ALP-labeled anti-rat IgG antibody (SAB, Inc.) diluted with a 0.5% skim milk solution to 1:2500 was added, and the plate was further left for 1 hour at room temperature. After the plate was washed, a phenyl phosphate substrate was reacted at room temperature, and then absorbance at a wavelength of 492 nm was measured.

[2] = target: T2, ALK2 expressed in mice (C57BL/6 mouse newborn organs, tissue sections) (mouse, UniProt P37172 21-509); experiment: immunohistological staining of frozen sections of mouse newborns; 10 µg/ml primary antibody
T2 construct: Endogenous protein in paraformaldehyde-fixed frozen or paraffin sections of mouse newborns; not a purified protein; also called mouse ALK2 (endogenous)
T2 sequence: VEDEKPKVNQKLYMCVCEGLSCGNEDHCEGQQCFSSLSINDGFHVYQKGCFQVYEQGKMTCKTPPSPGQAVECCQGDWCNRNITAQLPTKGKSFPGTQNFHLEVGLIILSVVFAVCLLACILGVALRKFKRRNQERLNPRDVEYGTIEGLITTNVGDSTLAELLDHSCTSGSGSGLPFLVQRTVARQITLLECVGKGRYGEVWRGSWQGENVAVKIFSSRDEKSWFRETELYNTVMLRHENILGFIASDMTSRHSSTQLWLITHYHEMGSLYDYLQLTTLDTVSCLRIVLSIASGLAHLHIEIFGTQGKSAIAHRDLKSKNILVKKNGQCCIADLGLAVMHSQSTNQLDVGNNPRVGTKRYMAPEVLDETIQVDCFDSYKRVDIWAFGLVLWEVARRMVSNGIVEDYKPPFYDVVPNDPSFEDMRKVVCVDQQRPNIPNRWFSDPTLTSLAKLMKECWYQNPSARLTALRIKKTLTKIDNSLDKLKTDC
Procedure: C57BL/6 mouse newborns were each fixed in a 4% paraformaldehyde-phosphate buffer solution for 2 days and then freeze-embedded in O.C.T Compound (manufactured by Sakura Finetek Japan Co., Ltd.), and frozen sections were prepared with a thickness of 5 μm using a cryostat (manufactured by Leica Biosystems Nussloch GmbH, Cat. #CM3050S). The sections were washed with PBS three time and reacted with an endogenous enzyme activity blocking solution (manufactured by Vector Laboratories, Inc., Cat. #SP-6000) for 10 minutes. […] On the following day, the sections were washed with PBS-T three times and reacted with HRP-conjugated anti-rat IgG antibody ImmPRESS Reagent (manufactured by Vector Laboratories, Inc., Cat. #MP-7444) as a secondary antibody for 30 minutes at 37° C. Then, the sections were washed with PBS-T three times, and DAB color development (manufactured by Vector Laboratories, Inc., Cat. #SK-4100) was performed. After washing with distilled water, the sections were counter-stained with hematoxylin, mounted on a glass cover according to a standard method, and observed under BZ-9000 (manufactured by Keyence Corp.).

[3] = target: T3, mouse ALK2(WT)-V5-His expressed in HEK293A cells (mouse, UniProt P37172 21-509); experiment: conclusion from BMP-specific luciferase reporter assay in transfected HEK293A cells
T3 construct: Full-length receptor overexpressed by transient transfection; also called pcDEF3/mouse ALK2(WT)-V5-His; not shown: V5-His tag of the pcDEF3 construct
T3 sequence: T2 sequence

[4] = target: T4, rat ALK2(WT)-V5-His expressed in HEK293A cells (rat, UniProt P80201 21-509); experiment: as above
T4 construct: the end 509 for rat is meant as the end of the entry; also called rat wild-type ALK2; pcDEF3/rat ALK2(WT)-V5-His; not shown: V5-His tag of the pcDEF3 construct
T4 sequence: T2 sequence with V1M, K5E, Q10P, I39V, H44R, I83V, Q86R, T97S, L118F

[5] = target: T5, human ALK2(WT)-V5-His expressed in HEK293A cells (human, UniProt Q04771 21-509); experiment: as above
T5 construct: Full-length receptor overexpressed by transient transfection; also called pcDEF3/human ALK2(WT)-V5-His; human ALK2(WT)-VS-His; not shown: V5-His tag of the pcDEF3 construct
T5 sequence: T2 sequence with V1M, Q10P, I121L, E162D, S310P

[6] = target: T6, human ALK2-EGFP expressed in HEK293A cells (human, UniProt Q04771 21-509); experiment: conclusion from flow cytometry competition with labeled A2-27D on HEK293A cells expressing human ALK2-EGFP
T6 construct: also called pcDEF3/human ALK2-EGFP; not shown: EGFP fused to ALK2
T6 sequence: T2 sequence with V1M, Q10P, I121L, E162D, S310P
Procedure: In the same manner as in Example 3, HEK293A cells were transiently transfected with pcDEF3/human ALK2-EGFP using Lipofectamine 2000 (manufactured by Thermo Fisher Scientific Inc.). After 2.5 hours, the medium was replaced with fresh 10% FBS-containing DMEM medium, and the cells were cultured overnight. On the following day, […] each of the cell suspensions adjusted to 1×10⁶ cells/mL was dispensed into a 1.5-mL microfuge and centrifuged at 500 g for 5 minutes, and then the supernatant was removed. To the cells, 100 μL of a mixed solution of Alexa fluor 647-labeled A2-27D diluted to 1 μg/mL and 10 μg/mL purified IgG was added, and the cells were left for 30 minutes at 4° C. After the cells were washed with PBS three times, fluorescence was detected by a flow cytometer (BD Accuri C6; manufactured by BD Biosciences). The intensity of EGFP expressed by the cells and the fluorescence intensity of stained Alexa flour 647 were plotted.

Measured: binding result

B1: rat anti-human ALK2 monoclonal antibody produced by the hybridoma #109 (antibody, V domains shown)
VH: EVQLVESGGDLVQPGRSMKLSCAASGFTFSNYGMAWVRQAPTKGLEWVATISYDGSGTYYRDSVEGRFTISRDNAKITLYLQMNSLRSEDTATYYCTRHGYSRVPYFDYWGQGVMVTVSS
VL: NIVLTQSPATLSVTPGESVSLSCRASQSISTNIHWYQQKSNESPRLLIKYASQSISGIPSRFSGSGSGTDFTLTINRVESEDFSIYYCQQSYSSQLTFGSGTKLEIKR
notes: Rat monoclonal antibody from a hybridoma
binds: [1]

B2: rat anti-human ALK2 monoclonal antibody produced by the hybridoma #200 (antibody, V domains shown)
VH: QVKLLQSGAALVKPGDSIRMSCKASGYTFTDYIIHWVKQSHGKSLEWIGYINPYSGGTNYNEKFKSKATLTVDKSSSTAYMEFCRLTSEDSAIYYCVRRGHDGTGFDYWGQGVMVTVSS
VL: DVVMTQTPVSLPVSLGGQASISCRSSQSLVHSNGETYLHWYLQKPGQSPQLLIYRVSNRFSGVPDRFSGSGSGTDFTLKLSRVEPEDLGDYYCLQSTHLPLTFGSGTKLEIKR
notes: Rat monoclonal antibody from a hybridoma; also called clone #200; ALK2_#200
binds: all assays above
